Patent US20200262927A1 (OXFORD BIOTHERAPEUTICS, published 2020)

Legend:
[1] = molecular target: T1, Recombinant hCRTAM/Fc Chimera (R&D Systems, Catalogue 1695-CR) (human, UniProt O95727 18-286); test: Octet BLI, antibody captured on anti-human IgG Fc biosensors, hCRTAM/Fc chimera as analyte from 200 nM diluted 1:3, global 1:1 fit
T1 construct: also called human recombinant hCRTAM/Fc chimera; Fc part of the bought chimera not given
T1 sequence: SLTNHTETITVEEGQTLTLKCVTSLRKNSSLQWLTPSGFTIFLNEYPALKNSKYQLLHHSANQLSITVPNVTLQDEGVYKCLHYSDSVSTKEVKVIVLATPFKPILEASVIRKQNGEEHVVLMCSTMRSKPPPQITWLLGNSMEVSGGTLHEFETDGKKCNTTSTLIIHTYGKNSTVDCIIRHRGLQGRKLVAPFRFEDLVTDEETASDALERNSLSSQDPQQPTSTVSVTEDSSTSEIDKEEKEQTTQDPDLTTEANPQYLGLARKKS
Protocol: (§1) Anti-human IgG-Fc Capture (AHC) ForteBio biosensors were loaded with the test antibodies at a concentration of 1 μg/mL over 300 seconds.
(§2) The loaded biosensors were incubated with 5 concentrations of human recombinant hCRTAM/Fc chimera starting at 200 nM, which was serially diluted 1:3; a reference well contained kinetic buffer only (to correct for drift).
(§3) The data from all concentrations were fit using a global 1:1 curve fit for each sample. Where possible the kinetic association and dissociation rates and the KD values were determined.

[2] = molecular target: T1, Recombinant hCRTAM/Fc Chimera (R&D …); test: Octet BLI, antibody captured on anti-human IgG Fc biosensors, hCRTAM/Fc chimera as analyte, global 1:1 fit
Protocol: as §1, §2, §3

B1: humanised 5A11 antibody (antibody, V domains shown)
VH: EVQLVESGGGLVQPGGSLKLSCAASGFTFSDAAMYWVRQASGKGLEWVARIRTKTNNYAAHYVESVKGRFTVSRDDSKNTVYLQMNSLKTEDTAMYYCTSVPQGTQDYWGQGTLVTVSS
VL: SYELTQPSSVSVSPGQTARITCSGDVLSKRYAQWSQQKPGQAIVSVIYKDSERPSGIPERFSGSSSGTTATLTISGAQVEDEADYYCLSTYADDNLPVFGGGTKLTVL
notes: Captured on anti-human IgG Fc biosensors, so it carried a human IgG Fc; also called humanized antibody 5A11
Kd [1]: 0.439 nM
koff [2]: 0.00011 s⁻¹
kon [2]: 249000 M⁻¹ s⁻¹
